From patent US20230257470A1 (published 2023)

T1: human FcγRIIa(R) (human, UniProt P12318 36-217)
T1 construct: also called FcgRIIaR; FcγRIIa type R
T1 chain: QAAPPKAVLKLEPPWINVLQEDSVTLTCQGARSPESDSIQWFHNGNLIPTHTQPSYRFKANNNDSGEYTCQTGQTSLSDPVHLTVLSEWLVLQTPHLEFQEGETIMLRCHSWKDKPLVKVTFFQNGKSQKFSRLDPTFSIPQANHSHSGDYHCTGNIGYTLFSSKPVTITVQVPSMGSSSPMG

T2: human FcγRIIa(H) (human, UniProt P12318 36-217)
T2 construct: also called FcgRIIaH; FcγRIIa type H
T2 sequence: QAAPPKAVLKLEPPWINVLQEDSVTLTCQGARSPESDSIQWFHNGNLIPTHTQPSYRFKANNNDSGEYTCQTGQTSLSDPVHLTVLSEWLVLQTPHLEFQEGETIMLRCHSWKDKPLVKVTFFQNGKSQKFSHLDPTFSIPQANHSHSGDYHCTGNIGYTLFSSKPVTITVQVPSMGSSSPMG

T3: human FcγRIIb (human, UniProt P31994 43-217, limits assumed)
T3 construct: also called FcgRIIb; FcγIIB
T3 sequence: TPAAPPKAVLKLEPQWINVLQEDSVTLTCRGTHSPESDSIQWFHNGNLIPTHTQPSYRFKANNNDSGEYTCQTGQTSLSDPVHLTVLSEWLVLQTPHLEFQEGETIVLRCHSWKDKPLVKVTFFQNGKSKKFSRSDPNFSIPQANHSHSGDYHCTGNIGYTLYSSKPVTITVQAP


How the values were obtained:
Test in all cases: SPR (Biacore), antibody captured, FcγR as analyte; amount bound / that of GpH7-B3/GpL16-k0 x 100;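 further: FcγR binding response divided by the captured antibody amount before comparison, measured at 25 °C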
[1] = molecular target: T4, human FcγRIa (human, UniProt P12314 16-292, limits assumed)
T4 construct: also called FcgRIa; CD64
Protocol: (§1) Interaction between each modified antibody and Fcγ receptor prepared in the manner described above was analyzed using the BIACORE™ T100 surface plasmon resonance system (GE Healthcare), BIACORE™ T200 surface plasmon resonance system (GE Healthcare), BIACORE™ A100 surface plasmon resonance system or BIACORE™ 4000 surface plasmon resonance system. HBS-EP+(GE Healthcare) was used for the running buffer, and measurements were carried out at 25° C. The chips used were chips in which antigen peptides, Protein A (Thermo Scientific), Protein A/G (Thermo Scientific) or Protein L (ACTIGEN® protein (Alltech or BioVision) were immobilized on the Series S Sensor Chip CM5 (GE Healthcare) or Series S Sensor Chip CM4 (GE Healthcare) by amine coupling, or chips in which preliminarily biotinylated antigen peptides were allowed to interact and then immobilized on the Series S Sensor Chip SA (certified) (GE Healthcare). The target antibodies were captured on these sensor chips, Fcγ receptor diluted with the running buffer was allowed to interact, followed by measurement of the amount of bound antibody. The amounts bound were compared between antibodies. However, since the amount of Fcγ receptor bound depends on the amount of captured antibody, the values used for comparison were first corrected by dividing the amount of Fcγ receptor bound by the captured amount of each antibody. Through reaction with 10 mM glycine-HCl at pH 1.5, the sensor chips were regenerated by washing off antibody captured on the sensor chips and used repeatedly.
(§2) Binding strength was evaluated according to the following method based on the results of analyzing the interaction with each FcγR. […] That value was then further multiplied by 100, and the resulting value was used as an indicator of relative binding activity to each FcγR.

[2] = molecular target: T1, human FcγRIIa(R)
Protocol: as §1, §2

[3] = molecular target: T2, human FcγRIIa(H)
Protocol: as §1, §2

[4] = molecular target: T3, human FcγRIIb
Protocol: as §1, §2

[5] = molecular target: T5, human FcγRIIIa(F) (human, UniProt P08637 17-208, limits assumed)
T5 construct: also called FcgRIIIaF; FcγRIIIa allotype F158
T5 sequence (P08637 other isoform, or with tags, fused parts or gaps limits assumed): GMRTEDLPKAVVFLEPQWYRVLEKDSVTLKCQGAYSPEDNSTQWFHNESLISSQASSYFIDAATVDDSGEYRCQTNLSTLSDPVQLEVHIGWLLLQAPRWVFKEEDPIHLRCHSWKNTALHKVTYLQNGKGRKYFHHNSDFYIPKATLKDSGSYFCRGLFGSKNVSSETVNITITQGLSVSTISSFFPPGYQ
Protocol: as §1, §2

T4 sequence (P12314 16-292 limits assumed): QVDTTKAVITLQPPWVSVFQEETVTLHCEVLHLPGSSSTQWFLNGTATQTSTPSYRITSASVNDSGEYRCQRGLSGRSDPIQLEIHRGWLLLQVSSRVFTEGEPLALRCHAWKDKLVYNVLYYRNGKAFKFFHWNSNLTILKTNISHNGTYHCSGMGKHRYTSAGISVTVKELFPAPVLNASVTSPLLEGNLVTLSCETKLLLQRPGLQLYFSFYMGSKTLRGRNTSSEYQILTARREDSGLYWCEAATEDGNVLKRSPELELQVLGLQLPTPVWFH

| relative binding activity [1] | relative binding activity [2] | relative binding activity [3] | relative binding activity [4] | relative binding activity [5] | Binder |
| --- | --- | --- | --- | --- | --- |
| 100 GpH7-B3/GpL16-k0 = 100 | 77 GpH7-B3/GpL16-k0 = 100 | 74 GpH7-B3/GpL16-k0 = 100 | 52 GpH7-B3/GpL16-k0 = 100 | 38 GpH7-B3/GpL16-k0 = 100 | GpH7-B3/GpL16-k0 variant Y296R (antibody, human IgG1, also called B3 variant; copies: 2 + 2) heavy: not shown light: DIVMTQSPLSLPVTPGEPASISCQASESLVHSNRNTYLHWYLQKPGQSPQLLIYKVSNRFSGVPDRFSGSGSGTDFTLKISRVEAEDVGVYYCSQNTHVPPTFGQGTKVEIE |
| 99 GpH7-B3/GpL16-k0 = 100 | 70 GpH7-B3/GpL16-k0 = 100 | 66 GpH7-B3/GpL16-k0 = 100 | 45 GpH7-B3/GpL16-k0 = 100 | 21 GpH7-B3/GpL16-k0 = 100 | GpH7-B3/GpL16-k0 variant Y296K (antibody, human IgG1, also called B3 variant; copies: 2 + 2) heavy: not shown light: DIVMTQSPLSLPVTPGEPASISCQASESLVHSNRNTYLHWYLQKPGQSPQLLIYKVSNRFSGVPDRFSGSGSGTDFTLKISRVEAEDVGVYYCSQNTHVPPTFGQGTKVEIE |
| 100 GpH7-B3/GpL16-k0 = 100 | 77 GpH7-B3/GpL16-k0 = 100 | 83 GpH7-B3/GpL16-k0 = 100 | 58 GpH7-B3/GpL16-k0 = 100 | 21 GpH7-B3/GpL16-k0 = 100 | GpH7-B3/GpL16-k0 variant Y296G (antibody, human IgG1, also called B3 variant; copies: 2 + 2) heavy: not shown light: DIVMTQSPLSLPVTPGEPASISCQASESLVHSNRNTYLHWYLQKPGQSPQLLIYKVSNRFSGVPDRFSGSGSGTDFTLKISRVEAEDVGVYYCSQNTHVPPTFGQGTKVEIE |
| 15 GpH7-B3/GpL16-k0 = 100 | 0 GpH7-B3/GpL16-k0 = 100 | 0 GpH7-B3/GpL16-k0 = 100 | -1 GpH7-B3/GpL16-k0 = 100 | 0 GpH7-B3/GpL16-k0 = 100 | GpH7-B3/GpL16-k0 variant S298P (antibody, human IgG1, also called B3 variant; copies: 2 + 2) heavy: not shown light: DIVMTQSPLSLPVTPGEPASISCQASESLVHSNRNTYLHWYLQKPGQSPQLLIYKVSNRFSGVPDRFSGSGSGTDFTLKISRVEAEDVGVYYCSQNTHVPPTFGQGTKVEIE |
| 100 GpH7-B3/GpL16-k0 = 100 | 33 GpH7-B3/GpL16-k0 = 100 | 35 GpH7-B3/GpL16-k0 = 100 | 23 GpH7-B3/GpL16-k0 = 100 | 71 GpH7-B3/GpL16-k0 = 100 | GpH7-B3/GpL16-k0 variant S298Y (antibody, human IgG1, also called B3 variant; copies: 2 + 2) heavy: not shown light: DIVMTQSPLSLPVTPGEPASISCQASESLVHSNRNTYLHWYLQKPGQSPQLLIYKVSNRFSGVPDRFSGSGSGTDFTLKISRVEAEDVGVYYCSQNTHVPPTFGQGTKVEIE |
| 92 GpH7-B3/GpL16-k0 = 100 | 62 GpH7-B3/GpL16-k0 = 100 | 36 GpH7-B3/GpL16-k0 = 100 | 22 GpH7-B3/GpL16-k0 = 100 | 20 GpH7-B3/GpL16-k0 = 100 | GpH7-B3/GpL16-k0 variant S298R (antibody, human IgG1, also called B3 variant; copies: 2 + 2) heavy: not shown light: DIVMTQSPLSLPVTPGEPASISCQASESLVHSNRNTYLHWYLQKPGQSPQLLIYKVSNRFSGVPDRFSGSGSGTDFTLKISRVEAEDVGVYYCSQNTHVPPTFGQGTKVEIE |

The remaining lines, values behind:

| Binder | relative binding activity [1] | relative binding activity [2] | relative binding activity [3] | relative binding activity [4] | relative binding activity [5] |
| --- | --- | --- | --- | --- | --- |
| GpH7-B3/GpL16-k0 variant Q295G (antibody, human IgG1, also called B3 variant; copies: 2 + 2) heavy: not shown light: DIVMTQSPLSLPVTPGEPASISCQASESLVHSNRNTYLHWYLQKPGQSPQLLIYKVSNRFSGVPDRFSGSGSGTDFTLKISRVEAEDVGVYYCSQNTHVPPTFGQGTKVEIE | 89 GpH7-B3/GpL16-k0 = 100 | 36 GpH7-B3/GpL16-k0 = 100 | 41 GpH7-B3/GpL16-k0 = 100 | 28 GpH7-B3/GpL16-k0 = 100 | 55 GpH7-B3/GpL16-k0 = 100 |
| GpH7-B3/GpL16-k0 variant S298K (antibody, human IgG1, also called B3 variant; copies: 2 + 2) heavy: not shown light: DIVMTQSPLSLPVTPGEPASISCQASESLVHSNRNTYLHWYLQKPGQSPQLLIYKVSNRFSGVPDRFSGSGSGTDFTLKISRVEAEDVGVYYCSQNTHVPPTFGQGTKVEIE | 88 GpH7-B3/GpL16-k0 = 100 | 79 GpH7-B3/GpL16-k0 = 100 | 38 GpH7-B3/GpL16-k0 = 100 | 34 GpH7-B3/GpL16-k0 = 100 | 25 GpH7-B3/GpL16-k0 = 100 |
| GpH7-B3/GpL16-k0 variant Q295S (antibody, human IgG1, also called B3 variant; copies: 2 + 2) heavy: not shown light: DIVMTQSPLSLPVTPGEPASISCQASESLVHSNRNTYLHWYLQKPGQSPQLLIYKVSNRFSGVPDRFSGSGSGTDFTLKISRVEAEDVGVYYCSQNTHVPPTFGQGTKVEIE | 100 GpH7-B3/GpL16-k0 = 100 | 52 GpH7-B3/GpL16-k0 = 100 | 67 GpH7-B3/GpL16-k0 = 100 | 40 GpH7-B3/GpL16-k0 = 100 | 87 GpH7-B3/GpL16-k0 = 100 |
| GpH7-B3/GpL16-k0 variant Q295W (antibody, human IgG1, also called B3 variant; copies: 2 + 2) heavy: not shown light: DIVMTQSPLSLPVTPGEPASISCQASESLVHSNRNTYLHWYLQKPGQSPQLLIYKVSNRFSGVPDRFSGSGSGTDFTLKISRVEAEDVGVYYCSQNTHVPPTFGQGTKVEIE | 81 GpH7-B3/GpL16-k0 = 100 | 26 GpH7-B3/GpL16-k0 = 100 | 38 GpH7-B3/GpL16-k0 = 100 | 16 GpH7-B3/GpL16-k0 = 100 | 10 GpH7-B3/GpL16-k0 = 100 |
| GpH7-B3/GpL16-k0 variant Q295H (antibody, human IgG1, also called B3 variant; copies: 2 + 2) heavy: not shown light: DIVMTQSPLSLPVTPGEPASISCQASESLVHSNRNTYLHWYLQKPGQSPQLLIYKVSNRFSGVPDRFSGSGSGTDFTLKISRVEAEDVGVYYCSQNTHVPPTFGQGTKVEIE | 97 GpH7-B3/GpL16-k0 = 100 | 45 GpH7-B3/GpL16-k0 = 100 | 78 GpH7-B3/GpL16-k0 = 100 | 29 GpH7-B3/GpL16-k0 = 100 | 52 GpH7-B3/GpL16-k0 = 100 |
| GpH7-B3/GpL16-k0 variant Q295Y (antibody, human IgG1, also called B3 variant; copies: 2 + 2) heavy: not shown light: DIVMTQSPLSLPVTPGEPASISCQASESLVHSNRNTYLHWYLQKPGQSPQLLIYKVSNRFSGVPDRFSGSGSGTDFTLKISRVEAEDVGVYYCSQNTHVPPTFGQGTKVEIE | 95 GpH7-B3/GpL16-k0 = 100 | 38 GpH7-B3/GpL16-k0 = 100 | 70 GpH7-B3/GpL16-k0 = 100 | 24 GpH7-B3/GpL16-k0 = 100 | 49 GpH7-B3/GpL16-k0 = 100 |
| GpH7-B3/GpL16-k0 variant Q295R (antibody, human IgG1, also called B3 variant; copies: 2 + 2) heavy: not shown light: DIVMTQSPLSLPVTPGEPASISCQASESLVHSNRNTYLHWYLQKPGQSPQLLIYKVSNRFSGVPDRFSGSGSGTDFTLKISRVEAEDVGVYYCSQNTHVPPTFGQGTKVEIE | 100 GpH7-B3/GpL16-k0 = 100 | 61 GpH7-B3/GpL16-k0 = 100 | 94 GpH7-B3/GpL16-k0 = 100 | 46 GpH7-B3/GpL16-k0 = 100 | 52 GpH7-B3/GpL16-k0 = 100 |
| GpH7-B3/GpL16-k0 variant S298G (antibody, human IgG1, also called B3 variant; copies: 2 + 2) heavy: not shown light: DIVMTQSPLSLPVTPGEPASISCQASESLVHSNRNTYLHWYLQKPGQSPQLLIYKVSNRFSGVPDRFSGSGSGTDFTLKISRVEAEDVGVYYCSQNTHVPPTFGQGTKVEIE | 100 GpH7-B3/GpL16-k0 = 100 | 89 GpH7-B3/GpL16-k0 = 100 | 43 GpH7-B3/GpL16-k0 = 100 | 68 GpH7-B3/GpL16-k0 = 100 | 59 GpH7-B3/GpL16-k0 = 100 |
| GpH7-B3/GpL16-k0 variant Q295N (antibody, human IgG1, also called B3 variant; copies: 2 + 2) heavy: not shown light: DIVMTQSPLSLPVTPGEPASISCQASESLVHSNRNTYLHWYLQKPGQSPQLLIYKVSNRFSGVPDRFSGSGSGTDFTLKISRVEAEDVGVYYCSQNTHVPPTFGQGTKVEIE | 99 GpH7-B3/GpL16-k0 = 100 | 56 GpH7-B3/GpL16-k0 = 100 | 74 GpH7-B3/GpL16-k0 = 100 | 41 GpH7-B3/GpL16-k0 = 100 | 68 GpH7-B3/GpL16-k0 = 100 |
